Assay results as given in patent US20100261220A1.
Blank lines part the entries; values can stand above or below the substance they belong to.

Columns and labels:
[1] = tested on: brain α-tubulin (taxotere-stabilized brain microtubules, Example VII)
[2] = tested on: NAP proteins
[3] = tested on: brain β-tubulin (taxotere-stabilized brain microtubules, Example VII)
[4] = tested on: young murine brain tubulin
[5] = tested on: HeLa tubulin
[6] = tested on: adult murine brain tubulin
[7] = target: β-tubulin of taxotere-stabilized mouse brain microtubules (mouse); experiment: cell-based or functional assay
[8] = target: α-tubulin of taxotere-stabilized mouse brain microtubules (mouse); experiment: cell-based or functional assay
[9] = tested on: α-tubulin of taxotere-stabilized mouse brain microtubules

Substance: GFP-Ttll3Bp (Tetrahymena Ttll3Bp with N-terminal GFP)
in vitro tubulin glycylation activity (3H-glycine incorporation) [1]: the GFP-Ttll3Bp-enriched extract had increased activity on α-tubulin

Substance: Ttll6ApΔ710-GFP (truncated Tetrahymena Ttll6Ap, amino acid codons 1-710, with N-terminal GFP)
in vitro glutamylase activity [2]: No in vitro activity toward NAP proteins was detected.

Substance: GFP-Ttll3Ap (Tetrahymena Ttll3Ap with N-terminal GFP)
in vitro tubulin glycylation activity (3H-glycine incorporation) [3]: A GFP-Ttll3Ap-enriched extract showed a strong increase in glycylation activity on α- and β-tubulin
in vitro tubulin glycylation activity (3H-glycine incorporation) [1]: A GFP-Ttll3Ap-enriched extract showed a strong increase in glycylation activity on α- and β-tubulin

Substance: GFP-Ttll6Ap (full-length Tetrahymena Ttll6Ap with N-terminal GFP)
in vitro glutamylation of microtubules (3H-glutamate, fluorogram) [4]: less efficiently microtubules made of young brain tubulin
in vitro glutamylation of microtubules (3H-glutamate, fluorogram) [5]: failed to detectably modify microtubules made of HeLa tubulin
in vitro glutamylation of microtubules (3H-glutamate, fluorogram) [6]: Enriched GFP-Ttll6Ap strongly modified microtubules made of adult brain tubulin
in vitro glutamylation of unpolymerized tubulin (3H-glutamate, fluorogram) [6]: enriched GFP-Ttll6Ap did not modify unpolymerized adult brain tubulin

in vitro glutamylase activity of extracts of overexpressing cells, compared to non-induced cells [7]: 100 fold
in vitro glutamylase activity of extracts of overexpressing cells, compared to non-induced cells [8]: 10 fold
Substance: Ttll6ApΔ710-GFP (truncated Tetrahymena Ttll6Ap, amino acid codons 1-710, with N-terminal GFP) (from UniProt P42212 1-238) (enzyme)

Substance: Ttll1p-GFP (Tetrahymena thermophila Ttll1p with an N-terminal GFP)
in vitro glutamylase activity of the anti-GFP immunoprecipitate [9]: a glutamylase activity directed mostly toward α-tubulin was co-immunoprecipitated with anti-GFP antibodies from extracts of overexpressing cells
